Data: US20250264433A1

Biological target: peptide #49+50 (combined sequences of EspB peptides #49 and #50) (Enteropathogenic Escherichia coli (EPEC))
Assay: ELISA, plate coated with peptide #49+50, serially diluted mAb, anti-human IgG-HRP

B1: mAb-EspB-B7 (antibody, V domains shown)
VH: EVQLLESGGGLVQPGGSLRLSCAASGFTFSHYAMNWVRQAPGKGLEWVSAINSNGDSTYYPDTVKDRFTISRDNSKNTLYLQMNSLRAEDTAVYYCARDRRAGYFDYWGQGTLVTVSS
VL: DIVLTQPPSASGTPGQRVTISCSGSRDNIGKNYVSWYQQLPGTAPKLLIYRNNQRPSGVPDRFSGSKSGTSASLAISGLRSEDEADYYCSAWDTSLNAYVFGPGTQLTVL
EC50 (read off the curve): 0.4 µg/mL
